Measurements published in publication PMC6220978, “Induced conformational changes activate the peptidoglycan synthase PBP1B” (Molecular Microbiology, 2018).
Residue numbers refer to the chain shown, from its start. Values belong to the binder of their own block, whether it stands above or below them.

Key:
PBP1B R157A = target: T1, PBP1B R157A (E. coli, UniProt P02919 46-844, R157A); test: SPR; PBP1B versions immobilised to the chip surface; CpoB versions injected from either 3.9 nM to 2 μM or from 78 nM to 40 μM; apparent KD by non-linear regression, at least three independent experiments; details: both partners purified
T1 construct: PBP1B, E. coli, residues 46-844, made by mutagenesis of pDML924; source: E. coli BL21(DE3), purified (membrane extract, HisTrap, thrombin, HiTrap SP ion exchange)
T1 sequence (looked up): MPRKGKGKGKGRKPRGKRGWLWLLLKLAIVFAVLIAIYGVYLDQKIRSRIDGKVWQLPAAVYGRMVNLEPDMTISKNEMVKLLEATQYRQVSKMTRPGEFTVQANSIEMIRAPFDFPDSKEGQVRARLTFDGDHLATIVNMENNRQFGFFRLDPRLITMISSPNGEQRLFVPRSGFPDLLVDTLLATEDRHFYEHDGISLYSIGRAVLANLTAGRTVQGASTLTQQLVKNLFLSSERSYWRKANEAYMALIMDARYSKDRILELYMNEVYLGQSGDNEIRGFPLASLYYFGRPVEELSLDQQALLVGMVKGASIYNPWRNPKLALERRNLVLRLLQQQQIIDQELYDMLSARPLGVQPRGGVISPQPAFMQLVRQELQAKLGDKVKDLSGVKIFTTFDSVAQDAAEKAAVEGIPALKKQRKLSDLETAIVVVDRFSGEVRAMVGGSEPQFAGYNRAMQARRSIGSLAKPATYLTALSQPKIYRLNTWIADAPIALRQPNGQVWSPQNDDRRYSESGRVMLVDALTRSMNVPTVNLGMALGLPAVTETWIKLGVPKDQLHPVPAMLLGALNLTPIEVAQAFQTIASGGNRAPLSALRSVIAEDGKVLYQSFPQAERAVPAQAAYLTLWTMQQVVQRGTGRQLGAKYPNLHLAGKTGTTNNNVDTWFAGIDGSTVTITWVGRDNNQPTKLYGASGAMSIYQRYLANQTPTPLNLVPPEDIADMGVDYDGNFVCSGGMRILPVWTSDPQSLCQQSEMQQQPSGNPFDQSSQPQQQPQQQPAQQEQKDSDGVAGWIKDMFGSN

[1] = target: T2, PBP1B (wild type, PBP1B^46-844) (E. coli, UniProt P02919 46-844); test: cell-based or functional assay
T2 sequence (looked up): T1 sequence (looked up) with A112R

PBP1B Q318A = target: T3, PBP1B Q318A (E. coli, UniProt P02919 46-844, Q318A); test: cell-based or functional assay
T3 sequence (looked up): T1 sequence (looked up) with A112R, Q273A

Kd (PBP1B R157A): 147 nM
B1: CpoB (full length) (natural protein, E. coli, UniProt P45955 27-263, looked up)
chain: QAPISSVGSGSVEDRVTQLERISNAHSQLLTQLQQQLSDNQSDIDSLRGQIQENQYQLNQVVERQKQILLQIDSLSSGGAAAQSTSGDQSGAAASTTPTADAGTANAGAPVKSGNANTDYNAAIALVQDKSRQDDAMVAFQNFIKNYPDSTYLPNANYWLGQLNYNKGKKDDAAYYFASVVKNYPKSPKAADAMFKVGVIMQDKGDTAKAKAVYQQVISKYPGTDGAKQAQKRLNAM
notes: CpoB, E. coli; The coiled-coil construct begins at residue 27, so the purified 'full length' protein may lack the signal peptide (surmise); source: E. coli BL21(DE3), purified (HisTrap, Superdex 200), as in Gray et al. 2015

GTase rate of WT PBP1B with LpoB relative to the basal rate of WT PBP1B (continuous fluorescence assay, dansylated lipid II; 0.5 μM PBP1B, 2 μM LpoB) [1]: 10.2 fold
fold activation of the GTase rate of PBP1B Q318A by LpoB (PBP1B Q318A): ~25 fold
B2: LpoB (natural protein, E. coli)
chain: VGQREPAPVEEVKPAPEQPAEPQQPVPTVPSVPTIPQQPGPIEHEDQTAPPAPHIRHYDWNGAMQPMVSKMLGADGVTAGSVLLVDSVNNRTNGSLNAAEATETLRNALANNGKFTLVSAQQLSMAKQQLGLSPQDSLGTRSKAIGIARNVGAHYVLYSSASGNVNAPTLQMQLMLVQTGEIIWSGKGAVSQQ
notes: LpoB, E. coli; also called lipoprotein LpoB; source: E. coli BL21(DE3), purified (HisTrap, Superdex 200), as in Egan et al. 2014
